1 molecule from article doi:10.1101/2021.06.06.447241 (bioRxiv, 2021) can be followed below.

The target of this experiment is Ssa1 (Hsp70) (Saccharomyces cerevisiae, UniProt P10591 1-642). Briefly: cross-linking.
Chain of Ssa1 (Hsp70) (P10591 whole entry): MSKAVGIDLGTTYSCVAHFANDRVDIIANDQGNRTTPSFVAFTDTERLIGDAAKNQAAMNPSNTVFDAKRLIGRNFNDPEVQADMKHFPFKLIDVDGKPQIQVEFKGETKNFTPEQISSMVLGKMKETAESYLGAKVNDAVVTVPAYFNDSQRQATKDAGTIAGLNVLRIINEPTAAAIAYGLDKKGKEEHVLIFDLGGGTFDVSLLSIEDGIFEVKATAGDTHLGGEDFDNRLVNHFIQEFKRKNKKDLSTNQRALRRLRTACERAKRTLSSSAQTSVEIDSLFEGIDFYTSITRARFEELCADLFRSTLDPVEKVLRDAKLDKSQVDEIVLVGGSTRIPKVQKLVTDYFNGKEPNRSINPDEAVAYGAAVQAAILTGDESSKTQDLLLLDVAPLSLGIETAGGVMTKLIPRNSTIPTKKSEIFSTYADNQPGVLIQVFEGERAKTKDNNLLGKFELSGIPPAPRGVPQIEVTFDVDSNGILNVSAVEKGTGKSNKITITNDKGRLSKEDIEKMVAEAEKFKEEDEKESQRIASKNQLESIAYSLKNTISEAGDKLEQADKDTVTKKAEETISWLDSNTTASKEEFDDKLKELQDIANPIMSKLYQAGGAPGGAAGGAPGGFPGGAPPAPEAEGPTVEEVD

B1: Ydj1 (Hsp40) (natural protein)
chain: MVKETKFYDILGVPVTATDVEIKKAYRKCALKYHPDKNPSEEAAEKFKEASAAYEILSDPEKRDIYDQFGEDGLSGAGGAGGFPGGGFGFGDDIFSQFFGAGGAQRPRGPQRGKDIKHEISASLEELYKGRTAKLALNKQILCKECEGRGGKKGAVKKCTSCNGQGIKFVTRQMGPMIQRFQTECDVCHGTGDIIDPKDRCKSCNGKKVENERKILEVHVEPGMKDGQRIVFKGEADQAPDVIPGDVVFIVSERPHKSFKRDGDDLVYEAEIDLLTAIAGGEFALEHVSGDWLKVGIVPGEVIAPGMRKVIEGKGMPIPKYGGYGNLIIKFTIKFPENHFTSEENLKKLEEILPPRIVPAIPKKATVDECVLADFDPAKYNRTRASRGGANYDSDEEEQGGEGVQCASQ
For B1, the binding result is “binds”.
